The results in this text go back to paper PMC5416870, “Lee Hyunah 1 2”.

This data set concerns the target SOX (alkaline exonuclease) (Kaposi's sarcoma-associated herpesvirus …, UniProt P88925 1-486). The data set can be described thus: fluorescence polarization anisotropy; FPA with 3'FAM oligonucleotides, single site binding fit (GraphPad PRISM6); buffer, pH and temperature as in cited Bagneris et al., not in material. As to conditions: protein: recombinant. Background: Fluorescence polarisation rises when a labelled molecule tumbles more slowly, as on binding a larger partner.

With GAUCUGAGCCAUUGAAGCAAGCUUCCAGAUC (structured_RNA) [K2-31], the Kd (label: 3'FAM, hairpin) is 49 µM.

B1: GFP51 (structured_RNA)
RNA: UACGGCAAGCUGACCCUGAAGUUCAUCUGCACCACCGGCAAGCUGCCCGUG
For the molecule B1, under “label: 3'FAM, stem loop with UGAAG motif”, the Kd is 5 µM.

B2: HBB58 (structured_RNA)
RNA: AGGUGAAGGCUCAUGGCAAGAAAGUGCUCGGUGCCUUUAGUGAUGGCCUGGCUCACCU
In the case of B2, the dissociation constant (Kd) (label: 3'FAM, bulge) stood at 42 µM.

B3: dsUN51 (dsRNA)
RNA 1: GGCCAUCCUGUUUUUUUCCCUUUUUUUUUUUCUUUUUUUUUUUUUUUUUUU
RNA 2: AAAAAAAAAAAAAAAAAAAAAAGAAAAAAAAAAAGGGAAAAAAACUGGAUGGCC
In the case of B3, the dissociation constant (Kd) (label: 3'FAM (strand 1), duplex, as printed has one U-U mismatch and second strand about 3 nt longer (5' overhang)) was roughly 73 µM.

The term Kd denotes the concentration at which binding is half-saturated.
